Data reported in patent US20180319855A1, “GENETICALLY MUTATED AEQUORIN-BASED BIOSENSORS WITH EXTRA SENSITIVITY TO CALCIUM AND IMPROVED BIOLUMINESCENCE INTENSITY” (CENTRE NATIONAL DE LA RECHERCHE SCIENTIFIQUE (CNRS), priority 2015, published 2018).

Assays:
[1] = test system: pyramidal neurons of mouse neocortical slices; test: Bioluminescence Ca2+ imaging of transduced neocortical slices in Mg2+-free ACSF; format: cell-based; details: native coelenterazine, 25 Hz
Description: Recombinant Sindbis viruses were prepared and used to express Redquorin mutants and GA in neurons of brain slices as described (Drobac et al., 2010), (Tricoire and Lambolez, 2014). The coding sequences of Redquorin mutants and GA were first subcloned in the plasmid pSinRep5 (Invitrogen) upstream to the polyA signal. The resulting pSinRep5 plasmids encoding the fusion protein sensors as well as the helper plasmid pDH26S (Invitrogen) were then submitted to in vitro transcription to prepare capped RNA using the Megascript SP6 kit (Ambion). […]
Bioluminescence imaging was performed at room temperature using an intensified CDD video camera (ICCD225; Photek) controlled by the IFS32 software (Photek), and mounted on an upright microscope (BX51WI, Olympus) equipped with water immersion objectives ×10 (NA=0.3) and ×20 (NA=0.95). Prior to bioluminescence imaging, fluorescence images of GA- or Redquorin-transduced slices were acquired in the “bright field” mode of the camera using GFP (Semrock) or Cy3ET (Chroma) filter sets. […]
The transduced acute brain slices expressing the sensors were then perfused with artificial cerebrospinal fluid (ACSF) without Mg^2+. […] Before the threshold for depolarization, the recorded imaging intensity was very weak consistent with the concept of low background luminescence of photoproteins. […]

[2] = Thermostability: relative bioluminescence activity after 30 min incubation; format: physicochemical; details: CLZ-f
How it was run: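 Purified photoprotein was reconstituted with CLZ-f and read for total counts with saturating calcium (50 mM Tris-HCl, 100 mM CaCl2, pH 7.5). It was then held at 30 to 40 °C for 30 min, re-equilibrated for 15 min and read again. Activity is 2nd/1st counts ×100.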

Molecule | bioluminescence imaging response to Ca2+ transients [1] | Thermostability, luminescence activity relative to wt-aequorin ([2]; 30° C. for 30 min) | Thermostability, luminescence activity relative to wt-aequorin ([2]; 40° C. for 30 min)
Redq/Q159T: aporedquorin (tdTomato-aequorin fusion) mutant Q159T (SEQ ID NO:22) (protein, mutant aequorin) MVSKGEEVIKEFMRFKVRMEGSMNGHEFEIEGEGEGRPYEGTQTAKLKVTKGGPLPFAWDILSPQFMYGSKAYVKHPADIPDYKKLSFPEGFKWERVMNFEDGGLVTVTQDSSLQDGTLIYKVKMRGTNFPPDGPVMQKKTMGWEASTERLYPRDGVLKGEIHQALKLKDGGHYLVEFKTIYMAKKPVQLPGYYYVDTKLDITSHNEDYTIVEQYERSEGRHHLFLGHGTGSTGSGSSGTASSEDNNMAVIKEFMRFKVRMEGSMNGHEFEIEGEGEGRPYEGTQTAKLKVTKGGPLPFAWDILSPQFMYGSKAYVKHPADIPDYKKLSFPEGFKWERVMNFEDGGLVTVTQDSSLQDGTLIYKVKMRGTNFPPDGPVMQKKTMGWEASTERLYPRDGVLKGEIHQALKLKDGGHYLVEFKTIYMAKKPVQLPGYYYVDTKLDITSHNEDYTIVEQYERSEGRHHLFLSGFDNPRWIGRHKHMFNFLDVNHNGKISLDEMVYKASDIVINNLGATPEQAKRHKDAVEAFFGGAGMKYGVETDWPAYIEGWKKLATDELEKYAKNEPTLIRIWGDALFDIVDKDQNGAITLDEWKAYTKAAGIIQSSEDCEETFRVCDIDESGTLDVDEMTRQHLGFWYTMDPACEKLYGGAVP | performed as well as its analogue GA | 0.90 | 0.92
Redq/Q159D: aporedquorin (tdTomato-aequorin fusion) mutant Q159D (SEQ ID NO:21) (protein, mutant aequorin) MVSKGEEVIKEFMRFKVRMEGSMNGHEFEIEGEGEGRPYEGTQTAKLKVTKGGPLPFAWDILSPQFMYGSKAYVKHPADIPDYKKLSFPEGFKWERVMNFEDGGLVTVTQDSSLQDGTLIYKVKMRGTNFPPDGPVMQKKTMGWEASTERLYPRDGVLKGEIHQALKLKDGGHYLVEFKTIYMAKKPVQLPGYYYVDTKLDITSHNEDYTIVEQYERSEGRHHLFLGHGTGSTGSGSSGTASSEDNNMAVIKEFMRFKVRMEGSMNGHEFEIEGEGEGRPYEGTQTAKLKVTKGGPLPFAWDILSPQFMYGSKAYVKHPADIPDYKKLSFPEGFKWERVMNFEDGGLVTVTQDSSLQDGTLIYKVKMRGTNFPPDGPVMQKKTMGWEASTERLYPRDGVLKGEIHQALKLKDGGHYLVEFKTIYMAKKPVQLPGYYYVDTKLDITSHNEDYTIVEQYERSEGRHHLFLSGFDNPRWIGRHKHMFNFLDVNHNGKISLDEMVYKASDIVINNLGATPEQAKRHKDAVEAFFGGAGMKYGVETDWPAYIEGWKKLATDELEKYAKNEPTLIRIWGDALFDIVDKDQNGAITLDEWKAYTKAAGIIQSSEDCEETFRVCDIDESGDLDVDEMTRQHLGFWYTMDPACEKLYGGAVP | significant signal-over-background ratio | 0.91 | 0.95
